# Reference: the supplement of paper PMC10724198
# ± gives the standard deviation of the averaged measurements.
# System: Saccharomyces cerevisiae
# Assay: protein stability index of tFT-peptide fusion (C-terminal peptide) (PSI (0-1 scale)); higher = more stable (slower turnover)
# Settings: genetic background: wild type; temperature: 30 C
# 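Also: PSI is a weighted mean of sequencing reads over stability bins, variants kept only with over 10 reads, mCherry proximal and sfGFP distal, peptide attached via GGGS linker.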
row,Sequence,protein stability index
1,PPSLPLPAPPPP,0.66 ± 0.063
2,FRSPRFLRSPPR,0.793 ± 0.064
3,PFGTFFFPSFLL,0.683 ± 0.0032
4,DVRMGCVGVSNI,0.71 ± 0.0088
5,APPPLPSPRPAA,0.699 ± 0.04
6,TTRHPRLHYIDP,0.674 ± 0.019
7,PHSSPSHRLSLP,0.722 ± 0.035
8,PSSLRLPLCSPL,0.7039 ± 0.004
9,VQGFYPVSAEGG,0.674 ± 0.022
10,AGGGGGRGSAGA,0.711 ± 0.011
11,SGVGSRDGVRGA,0.684 ± 0.048
12,EGITFGNDECWC,0.782 ± 0.095
13,PRRPHDPFPAAP,0.686 ± 0.017
14,VSVGEDGNRPTC,0.645 ± 0.071
15,IREQQKNQNHKE,0.642 ± 0.051
16,LLAFRVSRYFCD,0.87 ± 0.06
17,QCGAWLKFTCHV,0.636 ± 0.058
18,NLETDRRRTYGM,0.697 ± 0.036
19,DALVQVFANVGA,0.6629 ± 0.0059
20,VAPPLAPSPPLP,0.6678 ± 0.0013
21,GATAGNPEATPS,0.624 ± 0.074
22,GGVLERSRRRGG,0.741 ± 0.17
23,PHTGVKRDIENE,0.693 ± 0.092
24,PLPSPPPPFLSL,0.71 ± 0.048
25,PPRPPSPAPPPP,0.687 ± 0.042
26,SPAPQLFLPPPV,0.665 ± 0.052

row,Sequence,protein stability index
1,PPPPPSPAPSLR,0.723 ± 0.052
2,IHSRAAVGEYTG,0.6425 ± 0.0046
3,AVGPLTGPRPPV,0.699 ± 0.073
4,HSIPPPRRHPTI,0.742 ± 0.025
5,RNIMKQQNTSIR,0.717 ± 0.078
6,VCRADADRFVGL,0.71 ± 0.059
7,WCGSSGLFLVVW,0.594 ± 0.017
8,NTKEETKESRGR,0.713 ± 0.059
9,RRLNNTPPVENC,0.753 ± 0.15
10,YINILKLVMNQD,0.736 ± 0.052
11,PNFPEPSLTDAL,0.716 ± 0.04
12,LRCFLESPRQST,0.724 ± 0.071
13,RGARPRTPPSPP,0.713 ± 0.03
14,SFIGEDHQCVFY,0.723 ± 0.013
15,QCVSGLGPVVRT,0.7329 ± 0.0029
16,PFMFLSSCSGFF,0.735 ± 0.019
17,PLGPPPPPPLPS,0.7222 ± 0.0058
18,LVVWFGYFGCLL,0.56 ± 0.063
19,TRLAGINGLLSA,0.689 ± 0.022
20,CFKETLLKGSRQ,0.718 ± 0.034
21,GKRRCRREVERK,0.695 ± 0.018
22,VVVGVGGGVDMG,0.685 ± 0.0082
23,EWQAGSDRRFYW,0.618 ± 0.013
24,PYSSVPLAPPRP,0.736 ± 0.043
25,PFPPPPVPHARR,0.775 ± 0.22
26,SVPTSLCYSFSP,0.5957 ± 0.0034

row,Sequence,protein stability index
1,TNNLRLKVIGPK,0.653 ± 0.021
2,GPFHILSSATRP,0.705 ± 0.054
3,LRESPPHLPFPP,0.701 ± 0.039
4,RGQSGSLSKLLG,0.72 ± 0.026
5,LALPSWVRYASR,0.694 ± 0.016
6,VCGRWVYPGGCR,0.61 ± 0.01
7,FKVVLGRLGVRA,0.53638 ± 6.4e-06
8,PPPLAPPSVPCS,0.604 ± 0.053
9,LGRGGAASGRAL,0.67 ± 0.062
10,LAYITTTPALAS,0.581 ± 0.048
11,WHRCQWTPASRP,0.733 ± 0.05
12,VLRPFTPPSSRF,0.723 ± 0.047
13,RAAFNPCYTIDF,0.729 ± 0.025
14,SVLRPPAAPPFL,0.674 ± 0.046
15,PPSPSLPPPPRS,0.699 ± 0.055
16,LDPPHTLPRSAP,0.70982 ± 0.0002
17,RPPPPPSPPPPP,0.674 ± 0.073
18,RLSNIARRQENG,0.623 ± 0.017
19,VYGVLLGWGCVV,0.577 ± 0.015
20,KGRAERKKDKKR,0.684 ± 0.025
21,SPPLTLPPYPPP,0.7149 ± 0.0031
22,VRRGRQHLRYGR,0.708 ± 0.045
23,SVTLYLTPPSLT,0.67 ± 0.062
24,PPSPPPARPSPA,0.667 ± 0.041
25,PLWAVRPLLPPE,0.677 ± 0.016
26,SVSTDTLQVYAI,0.658 ± 0.013

row,Sequence,protein stability index
1,GLSPPLCSTPSR,0.736 ± 0.0092
2,FSSSSVRINLGV,0.663 ± 0.01
3,VRLRLGLLAGWS,0.633 ± 0.012
4,VVFFPVLSYFFR,0.649 ± 0.064
5,RYVSCLSIPCLL,0.6373 ± 0.0018
6,SLPCPISPPSFL,0.697 ± 0.018
7,FDSYVNHRLNRD,0.608 ± 0.057
8,DWHLLVRRPFSR,0.714 ± 0.042
9,LVCPLGIEGFSM,0.723 ± 0.034
10,LTFPILPVSTRV,0.603 ± 0.025
11,LGAAFHSLTRLV,0.617 ± 0.066
12,KEMRCRKKKEGK,0.683 ± 0.048
13,GGCFGGVGGGSG,0.707 ± 0.034
14,ATILILHTSPQF,0.655 ± 0.041
15,GGGGGGGGAGGV,0.6985 ± 0.0011
16,LSRTAFRPSLTL,0.746 ± 0.024
17,LIGMCEAGCSPF,0.727 ± 0.012
18,RGCGKGPLLSWF,0.717 ± 0.0093
19,CGRPRGVEPGGA,0.754 ± 0.12
20,WSPLFPLLASST,0.678 ± 0.016
21,CARYFFLHPSLG,0.67961 ± 1.3e-05
22,RWGCVGWKVVGG,0.709 ± 0.1
23,SCGMDLALGYAV,0.689 ± 0.061
24,SPISFIHPHISG,0.644 ± 0.017
25,AMGIPLLTTHFI,0.674 ± 0.064
26,KLGRWGARGSGR,0.655 ± 0.021

row,Sequence,protein stability index
1,PRGALMKGYKPG,0.663 ± 0.1
2,RAAVTDPCNPLL,0.693 ± 0.0094
3,SPCLLTLPVPFL,0.695 ± 0.017
4,RLSPPPTLSRFH,0.643 ± 0.03
5,SSTVGKEGTSRI,0.69 ± 0.048
6,LPSPRIPLTSQS,0.638 ± 0.031
7,PAPLSRPLSPTL,0.6841 ± 0.0055
8,WNRNVEILSALA,0.548 ± 0.012
9,CLQRPVSAGMVT,0.676 ± 0.027
10,RKRHDLPPAGPH,0.713 ± 0.023
11,LLFRSLASMEFP,0.6934 ± 0.0062
12,EEVKKRTLKVID,0.738 ± 0.021
13,PSPPRPRLPTAV,0.67026 ± 0.00045
14,RHPALPGPPGSS,0.698 ± 0.13
15,SGRGVEVGGEGE,0.752 ± 0.053
16,FCSCSCEFVPRS,0.618 ± 0.039
17,TDYSSPKTSLSR,0.668 ± 0.056
18,WKPGSPGCQAFR,0.6031 ± 0.0017
19,GLGACMVNELLG,0.648 ± 0.018
20,LCPVGLGFFVGL,0.666 ± 0.056
21,GWVLRERGRGVG,0.572 ± 0.07
22,RGIRDQRKSKDK,0.663 ± 0.029
23,AWCLLTRWDLLL,0.609 ± 0.0014
24,PPPVPPRFAVRP,0.6678 ± 0.0015
25,SVGVGSFVVLGV,0.6543 ± 0.0024
26,GGVFCGGGALWA,0.614 ± 0.014

row,Sequence,protein stability index
1,GRGVQWRAVGWE,0.748 ± 0.041
2,CFCYSLSINLNL,0.522 ± 0.0072
3,VQVLLMFTWERE,0.511 ± 0.016
4,GCCACDIGGEGG,0.642 ± 0.0079
5,GGESENEVGSRS,0.644 ± 0.038
6,LLPPTSRLPRLG,0.702 ± 0.12
7,GGGRALGRVWPG,0.684 ± 0.017
8,VLGGGPSIRGLM,0.655 ± 0.027
9,LSVAYSDIIVRC,0.554 ± 0.0065
10,WEGVGERVGGGA,0.638 ± 0.017
11,PPPQPPPSPPPP,0.67 ± 0.097
12,RWGGWFCRLPIG,0.698 ± 0.05
13,HSPSSLCHPSTG,0.727 ± 0.098
14,SPVHPSQHLWPP,0.615 ± 0.021
15,PPPPLSAPPFSS,0.697 ± 0.051
16,TPRPRRNCGPGP,0.717 ± 0.2
17,RLGECSRKSYHT,0.692 ± 0.024
18,VSGLKYSVLVGG,0.555 ± 0.015
19,LQCRAEFQRARC,0.666 ± 0.031
20,PFGSSPLCGSSF,0.683 ± 0.032
21,DCPAVLLYAVNW,0.501 ± 0.054
22,GGGWGAGVRLTW,0.757 ± 0.021
23,LFICETRLDSRY,0.744 ± 0.13
24,QAGKPAIHHAAL,0.682 ± 0.0034
25,RGGWYLQKAITP,0.716 ± 0.047
26,VALPPSHLSAFL,0.6887 ± 0.0039

row,Sequence,protein stability index
1,GRKGVIAELIKI,0.659 ± 0.11
2,KSKGGGTEPNRR,0.695 ± 0.009
3,CCVSFFISFGGR,0.554 ± 0.03
4,GGFFLFAVGVGN,0.627 ± 0.013
5,SGYCCDGCKGSY,0.6461 ± 0.0028
6,TRTELGKRWIRR,0.697 ± 0.061
7,AFSLRGRSVMFY,0.688 ± 0.025
8,ARNVDNIGYENS,0.698 ± 0.013
9,CHYSSFISFVVV,0.594 ± 0.024
10,THTTIQKTNQNE,0.703 ± 0.026
11,PLTPVSPSPNPV,0.648 ± 0.042
12,SPSPPSNPLPSP,0.701 ± 0.024
13,PPFRRPPPDPQP,0.7343 ± 0.0059
14,FCWLCRFADSPF,0.733 ± 0.078
15,KKTSQKQKGKRQ,0.671 ± 0.12
16,VFVRSNSGACKN,0.682 ± 0.027
17,CMFRCCLRSLVL,0.639 ± 0.0064
18,FPSCSAGLHLNL,0.7521 ± 0.0034
19,LVNSEKFCLSIC,0.535 ± 0.035
20,NTSPTRLSCPVF,0.616 ± 0.11
21,LGPPLLDLASLR,0.719 ± 0.035
22,AYKCLPAKGADS,0.695 ± 0.047
23,VAWYSLAEGCEG,0.641 ± 0.043
24,LPAPPTPRPAPP,0.706 ± 0.016
25,RPTPLSTPPPLG,0.644 ± 0.039
26,WKKSIKKDTREM,0.721 ± 0.012

row,Sequence,protein stability index
1,IYVWALSPVTLP,0.628 ± 0.019
2,FPRLTYAPFLAD,0.722 ± 0.02
3,FPFSSFSGRCVD,0.6697 ± 0.0042
4,STHLPPLPATLP,0.784 ± 0.1
5,AVPRPSPPPPPL,0.674 ± 0.0086
6,DCLFQSKLNTYD,0.676 ± 0.041
7,RTRPAMSRCSKR,0.704 ± 0.045
8,PPLPPSPSVSPR,0.746 ± 0.021
9,ESNFTLIRKIRT,0.64 ± 0.0065
10,PTYDSLPLLDNC,0.673 ± 0.014
11,CIFFSPFSFLLP,0.654 ± 0.035
12,QTTKEQQKKSYK,0.665 ± 0.053
13,FPQHPLFDPPAF,0.793 ± 0.013
14,TFIKMEKKKDGG,0.663 ± 0.034
15,FGYAGGSRVLGS,0.68 ± 0.0095
16,RDRMSEGLGDRS,0.684 ± 0.059
17,SGDSVAVGVTGT,0.689 ± 0.056
18,LLALHPLRSWPP,0.665 ± 0.016
19,SRPRPPPTPALP,0.679 ± 0.0056
20,EGGIYLQMCVGS,0.616 ± 0.035
